The results in this text go back to paper PMC11424477 (2024).

This experiment concerns the target spike (trimeric, Wuhan) (SARS-CoV-2, UniProt P0DTC2).

As a reminder, the Kd is the constant that tells how readily two partners part at equilibrium. A low value points to a tighter complex.

B1: fibrin (protein)
chain 1: ADSGEGDFLAEGGGVR
chain 2: QGVNDNEEGFFSAR
chain 3: YVATRDNCCILDERFGSYCPTTCGIADFLSTYQTKVDKDLQSLEDILHQVENKTSEVKQLIKAIQLTYNPDESSKPNMIDAATLKSRKMLEEIMKYEASILTHDSSIRYLQEIYNSNNQKIVNLKEKVAQLEAQCQEPCKDTVQIHDITGKDCQDIANKGAKQSGLYFIKPLKANQQFLVYCEIDGSGNGWTVFQKRLDGSVDFKKNWIQYKEGFGHLSPTGTTEFWLGNEKIHLISTQSAIPYALRVELEDWNGRTSTADYAMFKVGPEADKYRLTYAYFAGGDAGDAFDGFDFGDDPSDKFFTSHNGMQFSTWDNDNDKFEGNCAEQDGSGWWMNKCHAGHLNGVYYQGGTYSKASTPNGYDNGIIWATWKTRWYSMKKTTMKIIPFNRLTIGEGQQHHLGGAKQVRPEHPAETEYDSLYPEDDL
As to B1, binding was characterised by a dissociation constant (Kd) of 390 nM.
